Residue numbers refer to the chain shown, from its start. Names may count otherwise.
B1: CD20/CD3 BsMab with common VL (SEQ ID NO: 3) N93P (bispecific antibody, V domains shown)
VH 1: QVQLQQPGAELVKPGASVKMSCKASGYTFTSYNMHWVKQTPGRGLEWIGAIYPGNGDTSYNQKFKGKATLTADKSSSTAYMQLSSLRSEDSAVYYCARSTYYGGDWYFNVWGAGTTVTVSA
VH 2: EVQLQESGAELARPGASVKMSCKASGYTFTSYTMHWVKQRPGEGLEWIGYINPSSGYTKYNQKFKDKATLTADKSSSTAYMELSSLTSEDSAVYYCARWQDYDVYFDYWGEGTTLTVSS
VL: QIVLSQSPAILSASPGEKVTMTCRASSSVSYIHWFQQKPGSSPKPWIYATSNLASGVPVRFSGSGSGTSYSLTISRVEAEDAATYYCQQWTSPPPTFGGGTKLEIKR
B2: CD20/CD3 BsMab with common VL (SEQ ID NO: 3) H33T (bispecific antibody, V domains shown)
VH 1: B1 VH 1
VH 2: B1 VH 2
VL: B1 VL with H33T, P93N
B3: CD20/CD3 BsMab with common VL (SEQ ID NO: 3) H33S (bispecific antibody, V domains shown)
VH 1: B1 VH 1
VH 2: B1 VH 2
VL: B1 VL with H33S, P93N
B4: CD20/CD3 BsMab with common VL (SEQ ID NO: 3) N93T (bispecific antibody, V domains shown)
VH 1: B1 VH 1
VH 2: B1 VH 2
VL: B1 VL with P93T
B5: CD20/CD3 BsMab with common VL (SEQ ID NO: 3) P95Q (bispecific antibody, V domains shown)
VH 1: B1 VH 1
VH 2: B1 VH 2
VL: B1 VL with P93N, P95Q
B6: CD20/CD3 BsMab with common VL (SEQ ID NO: 3) H33L (bispecific antibody, V domains shown)
VH 1: B1 VH 1
VH 2: B1 VH 2
VL: B1 VL with H33L, P93N
B7: CD20/CD3 BsMab with common VL (SEQ ID NO: 3) N93V (bispecific antibody, V domains shown)
VH 1: B1 VH 1
VH 2: B1 VH 2
VL: B1 VL with P93V
B8: CD20/CD3 BsMab with common VL (SEQ ID NO: 3) P95V (bispecific antibody, V domains shown)
VH 1: B1 VH 1
VH 2: B1 VH 2
VL: B1 VL with P93N, P95V
B9: CD20/CD3 BsMab with common VL (SEQ ID NO: 3) N93G (bispecific antibody, V domains shown)
VH 1: B1 VH 1
VH 2: B1 VH 2
VL: B1 VL with P93G
B10: CD20/CD3 BsMab with common VL (SEQ ID NO: 3) N93A (bispecific antibody, V domains shown)
VH 1: B1 VH 1
VH 2: B1 VH 2
VL: B1 VL with P93A
B11: CD20/CD3 BsMab with common VL (SEQ ID NO: 3) H33P (bispecific antibody, V domains shown)
VH 1: B1 VH 1
VH 2: B1 VH 2
VL: B1 VL with H33P, P93N
B12: CD20/CD3 BsMab with common VL (SEQ ID NO: 3) H33W (bispecific antibody, V domains shown)
VH 1: B1 VH 1
VH 2: B1 VH 2
VL: B1 VL with H33W, P93N
B13: CD20/CD3 BsMab with common VL (SEQ ID NO: 3) H33G (bispecific antibody, V domains shown)
VH 1: B1 VH 1
VH 2: B1 VH 2
VL: B1 VL with H33G, P93N
B14: CD20/CD3 BsMab with common VL (SEQ ID NO: 3) P95A (bispecific antibody, V domains shown)
VH 1: B1 VH 1
VH 2: B1 VH 2
VL: B1 VL with P93N, P95A
B15: CD20/CD3 BsMab with common VL (SEQ ID NO: 3) H33V (bispecific antibody, V domains shown)
VH 1: B1 VH 1
VH 2: B1 VH 2
VL: B1 VL with H33V, P93N
B16: CD20/CD3 BsMab with common VL (SEQ ID NO: 3) N93S (bispecific antibody, V domains shown)
VH 1: B1 VH 1
VH 2: B1 VH 2
VL: B1 VL with P93S
B17: CD20/CD3 BsMab with common VL (SEQ ID NO: 3) N93Y (bispecific antibody, V domains shown)
VH 1: B1 VH 1
VH 2: B1 VH 2
VL: B1 VL with P93Y
B18: CD20/CD3 BsMab with common VL (SEQ ID NO: 3) H33E (bispecific antibody, V domains shown)
VH 1: B1 VH 1
VH 2: B1 VH 2
VL: B1 VL with H33E, P93N
B19: CD20/CD3 BsMab with common VL (SEQ ID NO: 3) H33M (bispecific antibody, V domains shown)
VH 1: B1 VH 1
VH 2: B1 VH 2
VL: B1 VL with H33M, P93N
B20: CD20/CD3 BsMab with common VL (SEQ ID NO: 3) H33D (bispecific antibody, V domains shown)
VH 1: B1 VH 1
VH 2: B1 VH 2
VL: B1 VL with H33D, P93N
B21: CD20/CD3 BsMab with common VL (SEQ ID NO: 3) Q88V (bispecific antibody, V domains shown)
VH 1: B1 VH 1
VH 2: B1 VH 2
VL: B1 VL with Q88V, P93N
B22: CD20/CD3 BsMab with common VL (SEQ ID NO: 3) H33A (bispecific antibody, V domains shown)
VH 1: B1 VH 1
VH 2: B1 VH 2
VL: B1 VL with H33A, P93N
B23: CD20/CD3 BsMab with common VL (SEQ ID NO: 3) N93Q (bispecific antibody, V domains shown)
VH 1: B1 VH 1
VH 2: B1 VH 2
VL: B1 VL with P93Q
B24: CD20/CD3 BsMab with common VL (SEQ ID NO: 3) H33R (bispecific antibody, V domains shown)
VH 1: B1 VH 1
VH 2: B1 VH 2
VL: B1 VL with H33R, P93N
B25: CD20/CD3 BsMab with common VL (SEQ ID NO: 3) N93F (bispecific antibody, V domains shown)
VH 1: B1 VH 1
VH 2: B1 VH 2
VL: B1 VL with P93F
B26: CD20/CD3 BsMab with common VL (SEQ ID NO: 3) N93L (bispecific antibody, V domains shown)
VH 1: B1 VH 1
VH 2: B1 VH 2
VL: B1 VL with P93L
B27: CD20/CD3 BsMab with common VL (SEQ ID NO: 3) P95T (bispecific antibody, V domains shown)
VH 1: B1 VH 1
VH 2: B1 VH 2
VL: B1 VL with P93N, P95T

Target: CD3 (Homo sapiens (Human), UniProt P07766 23-207; P04234 22-171; P09693 23-182)
Experiment: cell-based or functional assay

Sequence of CD3 (P07766 23-207 limits assumed, chain 1 of 3): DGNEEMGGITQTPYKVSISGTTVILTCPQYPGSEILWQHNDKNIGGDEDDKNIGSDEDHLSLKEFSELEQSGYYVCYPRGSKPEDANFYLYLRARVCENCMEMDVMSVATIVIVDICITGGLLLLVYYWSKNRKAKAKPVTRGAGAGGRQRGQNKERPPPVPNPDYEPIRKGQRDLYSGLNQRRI
Sequence of CD3 (P04234 22-171 limits assumed, chain 2 of 3): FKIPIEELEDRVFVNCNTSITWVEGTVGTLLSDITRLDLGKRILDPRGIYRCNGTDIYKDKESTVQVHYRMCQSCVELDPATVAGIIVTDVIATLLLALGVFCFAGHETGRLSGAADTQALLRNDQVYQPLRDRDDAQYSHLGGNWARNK
Sequence of CD3 (P09693 23-182 limits assumed, chain 3 of 3): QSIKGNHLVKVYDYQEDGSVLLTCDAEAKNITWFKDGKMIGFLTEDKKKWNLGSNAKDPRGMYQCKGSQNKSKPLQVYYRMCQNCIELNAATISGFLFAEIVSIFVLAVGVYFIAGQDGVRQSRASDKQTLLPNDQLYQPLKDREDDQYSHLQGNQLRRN

| Binder | Function % 0.025 ug/ml (T cell activation, CD69 on Jurkat cells with Raji cells, against the unmutated baseline) [%] | Function % 2 ug/ml (T cell activation, CD69 on Jurkat cells with Raji cells, against the unmutated baseline) [%] |
| --- | --- | --- |
| B1 | 9 | 51 |
| B2 | 99 | 106 |
| B3 | 108 | 95 |
| B4 | 21 | 98 |
| B5 | 11 | 17 |
| B6 | 16 | 93 |
| B7 | 33 | 95 |
| B8 | 96 | 97 |
| B9 | 15 | 21 |
| B10 | 12 | 80 |
| B11 | 34 | 94 |
| B12 | 14 | 87 |
| B13 | 100 | 101 |
| B14 | 19 | 92 |
| B15 | 83 | 104 |
| B16 | 15 | 90 |
| B17 | 12 | 22 |
| B18 | 89 | 104 |
| B19 | 13 | 74 |
| B20 | 109 | 96 |
| B21 | 14 | 75 |
| B22 | 65 | 104 |
| B23 | 10 | 62 |
| B24 | 9 | 54 |
| B25 | 11 | 70 |
| B26 | 9 | 65 |
| B27 | 13 | 52 |

Reference: patent publication US20220169728A1 (AB THERAPEUTICS, published 2022)
